# Columns and labels:
# [1] = test system: sympathetic neurons from chick embryo sympathetic chain ganglia; experiment: Neuronal survival assay (MTT), sympathetic chain ganglia; format: cell-based; details: for fold lower than refolded rhGDNF in sympathetic neuron survival bioassay / apparent ED50 in the sympathetic neuron survival bioassay: prior to refolding; for apparent ED50 in the sympathetic neuron survival bioassay: exposed to 30 mM 2-mercaptoethanol
# Description: Cultures of primary check embryo ciliary ganglia and sympathetic chain ganglia were prepared as previously described (Collins 1978 Develop. Biol. 65:50; Manthorpe et al. 1986 Develop. Brain Res. 25:191). Briefly, ciliary or sympathetic ganglia were removed from fertile, pathogen free chicken eggs that had been incubated for 8 and 10 days, respectively, at 38° C. in a humidified atmosphere. The ganglia were chemically dissociated by exposure first to Hands' Balanced Salt Solution without divalent cations, containing 10 mM HEPES buffer pH 7.2 for 10 min at 37° C., and then by exposure to a solution of 0.125% bactotrypsin 1:250 (Difco, Detroit, Mich.) in Hanks' Balanced Salt Solution modified as above for 12 min at 37° C. Trypsinization was stopped by addition of fetal calf serum to a final concentration of 10%.
# After this treatment, ganglia were transferred to a solution consisting of Dulbecco's high glucose Modified Eagle Medium without bicarbonate containing 10% fetal calf serum and 10 mM HEPES, pH 7.2 and were mechanially dissociated by trituration approximately 10 times through a glass Pasteur pipet whose opening had been fire polished and constricted to a diameter such that it took 2 seconds to fill the pipet.
# The dissociated ganglia were then plated in culture medium (Dulbecco's Modified Eagle Medium supplemented with 10% fetal calf serum, 4 mM glutamine, 60 mg/L penicillin-G, 25 mM HEPES, pH 7.2) in 100 mm diameter tissue culture dishes (40 dissociated ganglia per dish) for three hours. […] After three hours, the nonadherent nerve cells were collection by centrifugation, resuspended in culture medium, and plated in 50 μl per well onto half area 96 well microtiter tissue culture plates at a density of 1500 nerve cells per well. The microtiter wells had been previously exposed to a 1 mg/ml solution of poly-L-ornithine in 10 mM sodium borate, pH 8.4 overnight at 4° C., washed in distilled water and air dried.
# Ten μl of a serial dilution of the sample to be assayed for neurotrophic activity was added to each well and the dishes were incubated for 20 hours at 37° C. in a humidified atmosphere containing 7.5% CO2. After 18 hours for ciliary and 40 hours for sympathetic ganglia, 15 μl per well of a 1.5 mg/ml solution of the tetrasolium dye MTT in Dulbecco's high glucose Modified Eagle Medium without bicarbonate containing 10 mM HEPES, pH 7.2, was added and the cultures placed in the 37° C. incubator for 4 hours. Then, 75 μl of a solution of 6.7 ml of 12 M HCl per liter of isopropanol was added and the contents of each well triturated 30 times to break open the cells and suspend the dye. The absorbance of 570 nm was determined relative to a 690 nm reference for each well using an automatic microtiter plate reader (Dynatech, Chantilly, Va.). The absorbance of wells which had not received any neurotrophic agent (negative controls) was substracted from the absorbance of sample-containing wells. The resulting absorbance is proportional to the number of living cells in each well, defined as those nerve cells capable of reducing the dye. The number of trophic units of neurotrophic activity was defined as the reciprocal of the dilution that gave 50% of maximal survival of nerve cells. Specific activity was determined by dividing the number of trophic units by the amount of protein present in the sample.
# [2] = test system: dopaminergic neurons in rat embryo (E16) mesencephalic cell cultures; experiment: Bioassay for dopaminergic neurotrophic activity: 3H-dopamine uptake in dissociated mesencephalic cell cultures; format: cell-based; details: for SP. ACT (specific activity, dopamine uptake trophic units per protein): TU = reciprocal of dilution giving 50% of maximal stimulation of 3H-DA uptake; for FOLD (specific activity relative to B49 conditioned medium): purification fold over CM; for BIOACTIVITY: total trophic units at purification step; for ED50 for increasing dopamine uptake: rat embryo (E16) mesencephalic culture
# Description: The dopaminergic activity of the GDNF is used to facilitate the purification process. […] Briefly, cultures of dissociated mesencephalic cells are prepared, either in serum rich or serum free environments. Samples to be tested for dopaminergic activity are desalted and serially added to the cell cultures and the dishes are incubated for 6 days at 37° C. in a humidified atmosphere containing 6.5% CO2. The cultures, in the presence of the testing material, are then incubated at 37° C. with tritiated dopamine (^3H-DA). The dopamine uptake is halted, the cells washed, and the dopamine uptake analyzed by scintillation counting of retained tritium in the cultures.
# Culture conditions: Dissociated mesencephalic cell cultures were prepared as previously described (Friedman and Mytilineou 1987 Neurosci. Lett. 79:65-72), with minor modifications. Briefly, rostral mesencephalic tegmentum from brains of Sprague-Dawley rat embryos, at the 16th day of gestation, were dissected under the microscope in sterile conditions, collected in Ca^2+- and Mg^2+-free Dulbecco's phosphate buffered saline (Gibco, Gaithersburg, Md.) and dissociated mechanically by mild trituration. The cells were plated in 100 μl per well onto 16-mm diameter tissue culture wells (Falcon, Lincoln Park, N.J., 24-well plate) containing 400 μl medium to give a density of 2.5-3.5×10^5 cells per well. The culture wells had been previously exposed to 0.1 mg/ml solution of poly L-ornithine in 10 mM sodium borate, pH 8.4, for 3 hours at 37° C., washed 3 times in milli-Q H2O and once in Earle's balanced salt solution (Gibco). The feeding medium (10/10) consisted of minimal essential medium (MEM, Gibco) supplemented with glucose (33 mM), sodium bicarbonate (24.5 mM), glutamine (2 mM), HEPES (15 mM), penicillin G (5 U/ml), streptomycin (5 μg/ml), 10% heat-inactivated fetal calf serum (Gibco) and 10% heat inactivated horse serum (Gibco). The cultures were kept at 37° C. in a water-saturated atmosphere containing 6.5% CO2. After 3 hours, when most of the cells had adhered to the bottom of the well, the medium was replaced with 500 μl of fresh medium. At this time, a serial dilution of the sample to be assayed for GDNF activity was added to each well in duplicate and the plates were incubated in the 37° C. incubator. After a week, the cultures were treated for 24 hours with fluorodeoxyuridine (13 μg/ml) and uridine (33 μg/ml) to prevent excessive glial proliferation and subsequently fed with the above medium without fetal calf serum. The feeding medium was changed weekly.
# Alternatively, chemically defined serum-free medium was used in which serum was replaced by a mixture of proteins; hormones and salts. The defined medium (DM) consisted of a mixture of MEM and F12 nutrient mixture (both Gibco, 1:1; vol/vol) with glucose (33 mM), glutamine (2 mM) NaHCO3 (24.5 mM), HEPES (15 mM), supplemented with transferrin (100 μg/ml), insulin (25 μg/ml), putrescine (60 μM), progesterone (20 nM), sodium selenite (30 nM), penicillin G (5 U/ml) and streptomycin (5 μg/ml). The osmolarity of the DM was adjusted to 325 by the addition of milli-Q H2O. (110-125 ml H2O/l). […] All assays reached in the following examples were done in serum-containing medium.
# The functional status of the dopaminergic neurons may be assayed in these cultures by measuring dopamine uptake through specific “scavenger” transporters in the dopaminergic neurons and by counting the number of neurons positive for the dopamine synthetic enzyme tyrosine hydroxylase using immunohistochemistry.
molecule,measurement,setting,value
"GDNF prior to refolding: E. coli-expressed human GDNF, exposed to 2-mercaptoethanol and purified by S- or Q-Sepharose, before refolding (protein, UniProt P39905 78-211, looked up, unrefolded, E. coli-expressed) Glial cell line-derived …: SPDKQMAVLPRRERNRQAAAANPENSRGKGRRGQRGKNRGCVLTAIHLNVTDLGLGYETKEELIFRYCSGSCDAAETTYDKILKNLSRNRRLVSDKVGQACCRPIAFDDDLSFLDDNLVYHILRKHSAKRCGCI",bioactivity in sympathetic neuron survival bioassay,[1],greatly reduced bioactivity
same,bioactivity in dopamine uptake assay,[2],no detectable bioactivity
"Q-Sepharose chromatographed material: unrefolded sulfonylated human GDNF extract partially purified on Q-Sepharose (protein, UniProt P39905 78-211, looked up, unrefolded, sulfonylated) Glial cell line-derived …: SPDKQMAVLPRRERNRQAAAANPENSRGKGRRGQRGKNRGCVLTAIHLNVTDLGLGYETKEELIFRYCSGSCDAAETTYDKILKNLSRNRRLVSDKVGQACCRPIAFDDDLSFLDDNLVYHILRKHSAKRCGCI",fold lower than refolded rhGDNF in sympathetic neuron survival bioassay,[1],about 100 fold
same,apparent ED50 in the sympathetic neuron survival bioassay,[1],about 3 μg/ml
"3. RP-HPLC: GDNF after first reverse-phase HPLC (protein, UniProt Q07731 78-211, looked up, purification fraction) Glial cell line-derived …: SPDKQAAALPRRERNRQAAAASPENSRGKGRRGQRGKNRGCVLTAIHLNVTDLGLGYETKEELIFRYCSGSCEAAETMYDKILKNLSRSRRLTSDKVGQACCRPVAFDDDLSFLDDSLVYHILRKHSAKRCGCI","SP. ACT (specific activity, dopamine uptake trophic units per protein)",[2],"12,000 TU/μg"
same,FOLD (specific activity relative to B49 conditioned medium),[2],"24,000"
same,BIOACTIVITY,[2],12 TU × 10^−3
"4. Preparative SDS-PAGE: GDNF eluted from preparative non-reducing SDS-PAGE (protein, UniProt Q07731 78-211, looked up, purification fraction) Glial cell line-derived …: SPDKQAAALPRRERNRQAAAASPENSRGKGRRGQRGKNRGCVLTAIHLNVTDLGLGYETKEELIFRYCSGSCEAAETMYDKILKNLSRSRRLTSDKVGQACCRPVAFDDDLSFLDDSLVYHILRKHSAKRCGCI",BIOACTIVITY,[2],7 TU × 10^−3
"S-Sepharose chromatographed material: unrefolded human GDNF TU extract partially purified on S-Sepharose (protein, UniProt P39905 78-211, looked up, unrefolded, partially purified) Glial cell line-derived …: SPDKQMAVLPRRERNRQAAAANPENSRGKGRRGQRGKNRGCVLTAIHLNVTDLGLGYETKEELIFRYCSGSCDAAETTYDKILKNLSRNRRLVSDKVGQACCRPIAFDDDLSFLDDNLVYHILRKHSAKRCGCI",fold lower than refolded rhGDNF in sympathetic neuron survival bioassay,[1],about 333 fold
same,apparent ED50 in the sympathetic neuron survival bioassay,[1],about 1 μg/ml
"5. RP-HPLC: GDNF peak 3 after second reverse-phase HPLC (protein, UniProt Q07731 78-211, looked up, purification fraction, GDNF peak 3 after second reverse-phase HPLC) Glial cell line-derived …: SPDKQAAALPRRERNRQAAAASPENSRGKGRRGQRGKNRGCVLTAIHLNVTDLGLGYETKEELIFRYCSGSCEAAETMYDKILKNLSRSRRLTSDKVGQACCRPVAFDDDLSFLDDSLVYHILRKHSAKRCGCI","SP. ACT (specific activity, dopamine uptake trophic units per protein)",[2],"17,000 TU/μg"
same,FOLD (specific activity relative to B49 conditioned medium),[2],"34,000"
same,BIOACTIVITY,[2],5 TU × 10^−3
refolded GDNF: recombinant mature human GDNF expressed in E. coli and refolded (protein) SNMPEDYPDQFDDVMDFIQATIKRLKRSPDKQMAVLPRRERNRQAAAANPENSRGKGRRGQRGKNRGCVLTAIHLNVTDLGLGYETKEELIFRYCSGSCDAAETTYDKILKNLSRNRRLVTDKVGQACCRPIAF,bioactivity in sympathetic neuron survival bioassay,[1],fully active
same,ED50 for sympathetic neuron survival,[1]; chick embryo (E10) sympathetic ganglia,about 3 ng/ml
same,bioactivity in dopamine uptake assay,[2],fully active
same,ED50 for increasing dopamine uptake,[2],about 3 pg/ml
same,ED50 for increasing dopamine uptake,[2]; listed as rhGDNF,about 30 pg/ml
